Test results as given in patent US20130309248A1.

B1: CR8055 (antibody, V domains shown)
VH: EIVLTQSPDFQSVAPKEKVTITCRASRSIGSDLHWFQQRPDQSPKLLIKFASQSMSGVPSRFSGSGSGRDFTLTISSLEAEDAATYYCHQSSSLPLT
VL: EVQLVESGGGLVQPGGSLRLSCAASGFTDSVIFMSWVRQAPGKGLECVSIIYIDDSTYYADSVKGRFTISRHNSMGTVFLEMNSLRPDDTAVYYCATESGDFGDQTGPYHYYAMDV
B2: CR8050 (antibody, V domains shown)
VH: EIVMTQSPGTLSLSPGERATLSCRASQSVSRNYLAWYQQKPGLAPRLLISGASSRATGVPDRFSGRGSDTDFTLTISRLEPEDFAVYYCQHYGSVLVA
VL: QVQLQESGPGLVKPSETLSLTCTVSGGSVSSGTYYWSWIRQPPGKGLEWIGDISYSGSTNYNPSLKSRVTISRDTSKNLVSLKLTSVTAADTAVHYCARAMAAYNYDRGGYNDYYYMDV

Assays:
[1] = target: full-length recombinant H7 HA (A/Netherlands/219/2003) on PER.C6 cells (influenza A virus (H7N7)); experiment: FACS, IgG 5 µg/ml, HA-expressing PER.C6 cells; untransfected MFI 21
[2] = target: full-length recombinant H3 HA (A/Wisconsin/67/2005) on PER.C6 cells (influenza A virus (H3N2)); experiment: as above
[3] = target: full-length recombinant H1 HA (A/New Caledonia/20/1999) on PER.C6 cells (influenza A virus (H1N1)); experiment: as above
[4] = target: HA of virus A/Wisconsin/67/2005 (H3N2) (influenza A virus (H3N2)); experiment: cell-based or functional assay
[5] = target: HA of virus A/Chick/Germany/N/49 (H10) (influenza A virus (H10)); experiment: cell-based or functional assay
[6] = target: HA of virus A/Brisbane/59/2007 (H1N1) (influenza A virus (H1N1)); experiment: cell-based or functional assay
[7] = target: HA of virus A/Mallard/Netherlands/12/2000 (H7N3) (influenza A virus (H7N3)); experiment: cell-based or functional assay
[8] = target: HA of virus A/New Caledonia/20/1999 (H1N1) (influenza A virus (H1N1)); experiment: cell-based or functional assay
[9] = target: HA of virus A/Johannesburg/33/94 (H3N2) (influenza A virus (H3N2)); experiment: cell-based or functional assay
[10] = target: HA of virus A/Panama/2000/1999 (H3N2) (influenza A virus (H3N2)); experiment: cell-based or functional assay
[11] = target: HA of virus A/Solomon Islands/IVR-145 (H1N1) (influenza A virus (H1N1)); experiment: cell-based or functional assay
[12] = target: HA of virus A/Hiroshima/52/2005 (H3N2) (influenza A virus (H3N2)); experiment: cell-based or functional assay
[13] = target: full-length recombinant H7 HA (A/Netherlands/219/2003) on PER.C6 cells (influenza A virus (H7N7)); experiment: FACS, IgG 5 µg/ml, HA-expressing PER.C6 cells; untransfected MFI 6
[14] = target: full-length recombinant H3 HA (A/Wisconsin/67/2005) on PER.C6 cells (influenza A virus (H3N2)); experiment: as above
[15] = target: full-length recombinant H1 HA (A/New Caledonia/20/1999) on PER.C6 cells (influenza A virus (H1N1)); experiment: as above

| Binder | MFI [1] [MFI] | MFI [2] [MFI] | MFI [3] [MFI] | Neutralization titer SK50 [4] [µg/mL] | Neutralization titer SK50 [5] [µg/mL] | Neutralization titer SK50 [6] [µg/mL] | Neutralization titer SK50 [7] [µg/mL] | Neutralization titer SK50 [8] [µg/mL] | Neutralization titer SK50 [9] [µg/mL] | Neutralization titer SK50 [10] [µg/mL] | Neutralization titer SK50 [11] [µg/mL] | Neutralization titer SK50 [12] [µg/mL] | MFI [13] [MFI] | MFI [14] [MFI] | MFI [15] [MFI] |
| --- | --- | --- | --- | --- | --- | --- | --- | --- | --- | --- | --- | --- | --- | --- | --- |
| B1 | 26 | 433 | 31 | 1.07 | > 40 | > 40 | > 40 | > 40 | 3.38 | > 40 | > 40 | 1.15 | – | – | – |
| B2 | – | – | – | 1.77 | > 40 | – | > 40 | – | 1.49 | 6.5 | – | – | 6 | 282 | 8 |
